Results: patent US20240034783A1

Biological target: CLDN18.2 expressed in mouse healthy stomach tissue (mouse) (UniProt P56857)
Test: flow cytometry, live cells from healthy mouse stomach, antibody 4 µg/ml

Row | Binder | % of positive healthy stomach cells (Average) [%] | % of positive healthy stomach cells (Mouse 1) [%] | % of positive healthy stomach cells (Mouse 2) [%]
1 | cCl1-1 (antibody, V domains shown) VH: QIQLVQSGPELKKPGESVKISCKASGYTFTDYAMHWVKQAPGKGLKWMGWINTYTGKPTYADDFKGRFVFSLEASASTANLQISNLKNEDTATYFCARAVFYGYTMDAWGQGTSVTVSS VL: DIQMTQSPASLSASLGETISIACRASEDIYSNLAWYQQKSGKSPQLLIFSVKRLQDGVPSRFSGSGSGTQYSLKISGMQPEDEGDYFCLQGSNFPLTFGSGTKLEIK | 0.35 | 0.4 | 0.3
2 | hCl1a (antibody, human IgG1, kappa, V domains shown) VH: QVQLVQSGAEVKKPGASVKVSCKASGYTFTDYAMHWVRQAPGQRLEWMGWINTYTGKPTYAQKFQGRVTITRDTSASTAYMELSSLRSEDTAVYYCARAVFYGYTMDAWGQGTLVTVSS VL: DIQMTQSPSSLSASVGDRVTITCRASEDIYSNLAWYQQKPGKAPKLLIFSVKRLQDGVPSRFSGSGSGTDFTLTISSLQPEDFATYYCLQGSNFPLTFGQGTKVEIKR | 0.75 | 1.2 | 0.3
3 | hCl1b (antibody, human IgG1, kappa, V domains shown) VH: QVQLVQSGAEVKKPGASVKVSCKASGYTFTDYAMHWVRQAPGQRLEWMGWINTYTGKPTYSQKFQGRVTITRDTSASTAYMELSSLRSEDTAVYYCARAVFYGYTMDAWGQGTLVTVSS VL: DIQMTQSPSSLSASVGDRVTITCRASEDIYSNLAWYQQKPGKAPKLLIFSVKRLQDGVPSRFSGSGSGTDFTLTISSLQPEDFATYYCLQGSNFPLTFGQGTKVEIKR | 0.565 | 1 | 0.13
4 | hCl1c (antibody, human IgG1, kappa, V domains shown) VH: QVQLVQSGAEVKKPGASVKVSCKASGYTFTDYAMHWVRQAPGQRLEWMGWINTYTGKPTYSQKFQGRVTITRDTSASTAYMELSSLRSEDTAVYYCARAVFYGYTMDAWGQGTLVTVSS VL: DIQMTQSPSSLSASVGDRVTITCRTSEDIYSNLAWYQQKPGKAPKLLIFAIKRLQDGVPSRFSGSGSGTDFTLTISSLQPEDFATYYCLQGSKFPLTFGQGTKVEIKR | 0.25 | 0.1 | 0.4
5 | hCl1f (antibody, human IgG1, kappa, V domains shown) VH: QVQLVQSGAEVKKPGASVKVSCKASGYTFTDYAMHWVRQAPGQRLEWMGWINAYTGKPTYAQKFQGRVTITRDTSASTAYMELSSLRSEDTAVYYCARAVFYGYTMDAWGQGTLVTVSS VL: DIQMTQSPSSLSASVGDRVTITCRASEDIYSNLAWYQQKPGKAPKLLIYSVKRLQDGVPSRFSGSGSGTDFTLTISSLQPEDFATYYCLQGSNFPLTFGQGTKVEIKR | 0.07 | 0.04 | 0.1
